# Test results as given in patent US20180273587A1 (AILERON THERAPEUTICS, published 2018).
# Positions of bridges follow the written chain, without caps; N, C: chain ends. Non-standard residues stand in square brackets, D forms with d. Phe(4-tBu) = CC(C)(C)c1ccc(C[C@H](N)C(=O)O)cc1; R8 = C=CCCCCCC[C@@](C)(N)C(=O)O; S5 = C=CCCC[C@](C)(N)C(=O)O
# B1: SEQ ID NO: 1745 (peptide)
# peptide: Ac-IWIAQALR[R8]IGDA[Phe(4-tBu)]N[S5]YYA-NH2
# modifications: staple 9-16
# SMILES: CC[C@H](C)[C@H](NC(C)=O)C(=O)N[C@@H](Cc1c[nH]c2ccccc12)C(=O)N[C@H](C(=O)N[C@@H](C)C(=O)N[C@@H](CCC(N)=O)C(=O)N[C@@H](C)C(=O)N[C@@H](CC(C)C)C(=O)N[C@@H](CCCNC(=N)N)C(=O)N[C@]1(C)CCCCCCC=CCCC[C@@](C)(C(=O)N[C@@H](Cc2ccc(O)cc2)C(=O)N[C@@H](Cc2ccc(O)cc2)C(=O)N[C@@H](C)C(N)=O)NC(=O)[C@H](CC(N)=O)NC(=O)[C@H](Cc2ccc(C(C)(C)C)cc2)NC(=O)[C@H](C)NC(=O)[C@H](CC(=O)O)NC(=O)CNC(=O)[C@H]([C@@H](C)CC)NC1=O)[C@@H](C)CC
# B2: SEQ ID NO: 1747 (peptide)
# peptide: IWIAQALRAIGDAXNAYYA
# modifications: N-terminal Ac; $r8 at 9 and $ at 16 (crosslinked); Bip at 14; C-terminal NH2
# B3: SEQ ID NO: 1748 (peptide)
# peptide: Ac-IWIAAALR[R8]IGDAFD[S5]YYA-NH2
# modifications: staple 9-16
# SMILES: CC[C@H](C)[C@H](NC(C)=O)C(=O)N[C@@H](Cc1c[nH]c2ccccc12)C(=O)N[C@H](C(=O)N[C@@H](C)C(=O)N[C@@H](C)C(=O)N[C@@H](C)C(=O)N[C@@H](CC(C)C)C(=O)N[C@@H](CCCNC(=N)N)C(=O)N[C@]1(C)CCCCCCC=CCCC[C@@](C)(C(=O)N[C@@H](Cc2ccc(O)cc2)C(=O)N[C@@H](Cc2ccc(O)cc2)C(=O)N[C@@H](C)C(N)=O)NC(=O)[C@H](CC(=O)O)NC(=O)[C@H](Cc2ccccc2)NC(=O)[C@H](C)NC(=O)[C@H](CC(=O)O)NC(=O)CNC(=O)[C@H]([C@@H](C)CC)NC1=O)[C@@H](C)CC
# B4: SEQ ID NO: 1749 (peptide)
# peptide: Ac-IWIAAALR[R8]IGDAFE[S5]YYA-NH2
# modifications: staple 9-16
# SMILES: CC[C@H](C)[C@H](NC(C)=O)C(=O)N[C@@H](Cc1c[nH]c2ccccc12)C(=O)N[C@H](C(=O)N[C@@H](C)C(=O)N[C@@H](C)C(=O)N[C@@H](C)C(=O)N[C@@H](CC(C)C)C(=O)N[C@@H](CCCNC(=N)N)C(=O)N[C@]1(C)CCCCCCC=CCCC[C@@](C)(C(=O)N[C@@H](Cc2ccc(O)cc2)C(=O)N[C@@H](Cc2ccc(O)cc2)C(=O)N[C@@H](C)C(N)=O)NC(=O)[C@H](CCC(=O)O)NC(=O)[C@H](Cc2ccccc2)NC(=O)[C@H](C)NC(=O)[C@H](CC(=O)O)NC(=O)CNC(=O)[C@H]([C@@H](C)CC)NC1=O)[C@@H](C)CC
# B5: SEQ ID NO: 1750 (peptide)
# peptide: Ac-IWIAAALR[R8]IGDAFQ[S5]YYA-NH2
# modifications: staple 9-16
# SMILES: CC[C@H](C)[C@H](NC(C)=O)C(=O)N[C@@H](Cc1c[nH]c2ccccc12)C(=O)N[C@H](C(=O)N[C@@H](C)C(=O)N[C@@H](C)C(=O)N[C@@H](C)C(=O)N[C@@H](CC(C)C)C(=O)N[C@@H](CCCNC(=N)N)C(=O)N[C@]1(C)CCCCCCC=CCCC[C@@](C)(C(=O)N[C@@H](Cc2ccc(O)cc2)C(=O)N[C@@H](Cc2ccc(O)cc2)C(=O)N[C@@H](C)C(N)=O)NC(=O)[C@H](CCC(N)=O)NC(=O)[C@H](Cc2ccccc2)NC(=O)[C@H](C)NC(=O)[C@H](CC(=O)O)NC(=O)CNC(=O)[C@H]([C@@H](C)CC)NC1=O)[C@@H](C)CC
# B6: SEQ ID NO: 1751 (peptide)
# peptide: Ac-IWIAAALR[R8]IGDAFS[S5]YYA-NH2
# modifications: staple 9-16
# SMILES: CC[C@H](C)[C@H](NC(C)=O)C(=O)N[C@@H](Cc1c[nH]c2ccccc12)C(=O)N[C@H](C(=O)N[C@@H](C)C(=O)N[C@@H](C)C(=O)N[C@@H](C)C(=O)N[C@@H](CC(C)C)C(=O)N[C@@H](CCCNC(=N)N)C(=O)N[C@]1(C)CCCCCCC=CCCC[C@@](C)(C(=O)N[C@@H](Cc2ccc(O)cc2)C(=O)N[C@@H](Cc2ccc(O)cc2)C(=O)N[C@@H](C)C(N)=O)NC(=O)[C@H](CO)NC(=O)[C@H](Cc2ccccc2)NC(=O)[C@H](C)NC(=O)[C@H](CC(=O)O)NC(=O)CNC(=O)[C@H]([C@@H](C)CC)NC1=O)[C@@H](C)CC
# B7: SEQ ID NO: 1752 (peptide)
# peptide: Ac-IWIAAALR[R8]IGDAFH[S5]YYA-NH2
# modifications: staple 9-16
# SMILES: CC[C@H](C)[C@H](NC(C)=O)C(=O)N[C@@H](Cc1c[nH]c2ccccc12)C(=O)N[C@H](C(=O)N[C@@H](C)C(=O)N[C@@H](C)C(=O)N[C@@H](C)C(=O)N[C@@H](CC(C)C)C(=O)N[C@@H](CCCNC(=N)N)C(=O)N[C@]1(C)CCCCCCC=CCCC[C@@](C)(C(=O)N[C@@H](Cc2ccc(O)cc2)C(=O)N[C@@H](Cc2ccc(O)cc2)C(=O)N[C@@H](C)C(N)=O)NC(=O)[C@H](Cc2c[nH]cn2)NC(=O)[C@H](Cc2ccccc2)NC(=O)[C@H](C)NC(=O)[C@H](CC(=O)O)NC(=O)CNC(=O)[C@H]([C@@H](C)CC)NC1=O)[C@@H](C)CC
# B8: SEQ ID NO: 1753 (peptide)
# peptide: Ac-IWIAAALR[R8]IGDAFN[S5]LYA-NH2
# modifications: staple 9-16
# SMILES: CC[C@H](C)[C@H](NC(C)=O)C(=O)N[C@@H](Cc1c[nH]c2ccccc12)C(=O)N[C@H](C(=O)N[C@@H](C)C(=O)N[C@@H](C)C(=O)N[C@@H](C)C(=O)N[C@@H](CC(C)C)C(=O)N[C@@H](CCCNC(=N)N)C(=O)N[C@]1(C)CCCCCCC=CCCC[C@@](C)(C(=O)N[C@@H](CC(C)C)C(=O)N[C@@H](Cc2ccc(O)cc2)C(=O)N[C@@H](C)C(N)=O)NC(=O)[C@H](CC(N)=O)NC(=O)[C@H](Cc2ccccc2)NC(=O)[C@H](C)NC(=O)[C@H](CC(=O)O)NC(=O)CNC(=O)[C@H]([C@@H](C)CC)NC1=O)[C@@H](C)CC
# B9: SEQ ID NO: 1760 (peptide)
# peptide: Ac-IWIAAALR[R8]IGDAFN[S5]YYD-NH2
# modifications: staple 9-16
# SMILES: CC[C@H](C)[C@H](NC(C)=O)C(=O)N[C@@H](Cc1c[nH]c2ccccc12)C(=O)N[C@H](C(=O)N[C@@H](C)C(=O)N[C@@H](C)C(=O)N[C@@H](C)C(=O)N[C@@H](CC(C)C)C(=O)N[C@@H](CCCNC(=N)N)C(=O)N[C@]1(C)CCCCCCC=CCCC[C@@](C)(C(=O)N[C@@H](Cc2ccc(O)cc2)C(=O)N[C@@H](Cc2ccc(O)cc2)C(=O)N[C@@H](CC(=O)O)C(N)=O)NC(=O)[C@H](CC(N)=O)NC(=O)[C@H](Cc2ccccc2)NC(=O)[C@H](C)NC(=O)[C@H](CC(=O)O)NC(=O)CNC(=O)[C@H]([C@@H](C)CC)NC1=O)[C@@H](C)CC
# B10: SEQ ID NO: 1761 (peptide)
# peptide: Ac-IWIAAALR[R8]IGDAFN[S5]YYE-NH2
# modifications: staple 9-16
# SMILES: CC[C@H](C)[C@H](NC(C)=O)C(=O)N[C@@H](Cc1c[nH]c2ccccc12)C(=O)N[C@H](C(=O)N[C@@H](C)C(=O)N[C@@H](C)C(=O)N[C@@H](C)C(=O)N[C@@H](CC(C)C)C(=O)N[C@@H](CCCNC(=N)N)C(=O)N[C@]1(C)CCCCCCC=CCCC[C@@](C)(C(=O)N[C@@H](Cc2ccc(O)cc2)C(=O)N[C@@H](Cc2ccc(O)cc2)C(=O)N[C@@H](CCC(=O)O)C(N)=O)NC(=O)[C@H](CC(N)=O)NC(=O)[C@H](Cc2ccccc2)NC(=O)[C@H](C)NC(=O)[C@H](CC(=O)O)NC(=O)CNC(=O)[C@H]([C@@H](C)CC)NC1=O)[C@@H](C)CC
# B11: SEQ ID NO: 1762 (peptide)
# peptide: Ac-IWIAAALR[R8]IGDAFN[S5]YYQ-NH2
# modifications: staple 9-16
# SMILES: CC[C@H](C)[C@H](NC(C)=O)C(=O)N[C@@H](Cc1c[nH]c2ccccc12)C(=O)N[C@H](C(=O)N[C@@H](C)C(=O)N[C@@H](C)C(=O)N[C@@H](C)C(=O)N[C@@H](CC(C)C)C(=O)N[C@@H](CCCNC(=N)N)C(=O)N[C@]1(C)CCCCCCC=CCCC[C@@](C)(C(=O)N[C@@H](Cc2ccc(O)cc2)C(=O)N[C@@H](Cc2ccc(O)cc2)C(=O)N[C@@H](CCC(N)=O)C(N)=O)NC(=O)[C@H](CC(N)=O)NC(=O)[C@H](Cc2ccccc2)NC(=O)[C@H](C)NC(=O)[C@H](CC(=O)O)NC(=O)CNC(=O)[C@H]([C@@H](C)CC)NC1=O)[C@@H](C)CC
# B12: SEQ ID NO: 1763 (peptide)
# peptide: Ac-IWIAAALR[R8]IGDAFN[S5]YYS-NH2
# modifications: staple 9-16
# SMILES: CC[C@H](C)[C@H](NC(C)=O)C(=O)N[C@@H](Cc1c[nH]c2ccccc12)C(=O)N[C@H](C(=O)N[C@@H](C)C(=O)N[C@@H](C)C(=O)N[C@@H](C)C(=O)N[C@@H](CC(C)C)C(=O)N[C@@H](CCCNC(=N)N)C(=O)N[C@]1(C)CCCCCCC=CCCC[C@@](C)(C(=O)N[C@@H](Cc2ccc(O)cc2)C(=O)N[C@@H](Cc2ccc(O)cc2)C(=O)N[C@@H](CO)C(N)=O)NC(=O)[C@H](CC(N)=O)NC(=O)[C@H](Cc2ccccc2)NC(=O)[C@H](C)NC(=O)[C@H](CC(=O)O)NC(=O)CNC(=O)[C@H]([C@@H](C)CC)NC1=O)[C@@H](C)CC
# Molecular target: T1, MCL-1 (UniProt Q07820 172-327, limits assumed)
# T1 construct: Target of the Ki columns; also called Myeloid cell leukemia 1
# Assay: Ki; method not stated; unit not printed (nM per Table 6)
# T1 sequence (Q07820 172-327 limits assumed): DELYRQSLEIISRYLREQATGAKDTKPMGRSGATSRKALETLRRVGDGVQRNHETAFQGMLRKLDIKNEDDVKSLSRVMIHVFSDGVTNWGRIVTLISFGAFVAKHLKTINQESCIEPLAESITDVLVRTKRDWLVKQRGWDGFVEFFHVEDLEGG
row,Binder,Ki
1,B1,21.2 nM
2,B2,6.5 nM
3,B3,1.5 nM
4,B4,1.8 nM
5,B5,4.9 nM
6,B6,8 nM
7,B7,8 nM
8,B8,17.6 nM
9,B9,2.2 nM
10,B10,1.4 nM
11,B11,4.6 nM
12,B12,4.7 nM

# Molecular target: T2, BCL-XL (UniProt Q07817 1-209)
# T2 construct: Target of the Ki columns
# Assay: as above
# T2 sequence (Q07817 1-209): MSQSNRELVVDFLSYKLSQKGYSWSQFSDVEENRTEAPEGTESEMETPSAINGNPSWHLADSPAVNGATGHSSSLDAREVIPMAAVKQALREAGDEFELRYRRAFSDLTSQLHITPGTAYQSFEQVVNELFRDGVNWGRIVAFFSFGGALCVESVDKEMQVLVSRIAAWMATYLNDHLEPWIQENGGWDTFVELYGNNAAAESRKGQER
row,Binder,Ki
1,B1,154 nM
2,B2,100 nM
3,B3,25.9 nM
4,B4,17.9 nM
5,B5,36.5 nM
6,B6,44.1 nM
7,B7,36.3 nM
8,B8,69.9 nM
9,B9,116 nM
10,B10,45.4 nM
11,B11,41.1 nM
12,B12,36 nM

# Molecular target: T3, BCL-2 (UniProt P10415 1-217, limits assumed)
# T3 construct: Target of the Ki columns
# Assay: as above
# T3 sequence (P10415 1-217 limits assumed): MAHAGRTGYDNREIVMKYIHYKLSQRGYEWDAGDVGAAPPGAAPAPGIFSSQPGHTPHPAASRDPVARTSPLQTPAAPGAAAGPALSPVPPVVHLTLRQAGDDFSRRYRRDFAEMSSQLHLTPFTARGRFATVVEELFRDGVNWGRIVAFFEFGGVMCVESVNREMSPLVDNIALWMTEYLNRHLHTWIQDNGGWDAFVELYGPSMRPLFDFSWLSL
row,Binder,Ki
1,B1,158 nM
2,B2,114 nM
3,B3,35.3 nM
4,B4,30.7 nM
5,B5,71.6 nM
6,B6,67.5 nM
7,B7,57.4 nM
8,B8,125 nM
9,B9,138 nM
10,B10,56.4 nM
11,B11,64.7 nM
12,B12,62.4 nM
